Test results as given in PMC8538103.

Columns and labels:
[1] = target: neuraminidase from A/BrevigMission/1/1918 (H1N1), residues 83 to 468 of the ectodomain, construct pTT5-NA (+SS −TET) (influenza A virus A/BrevigMission/1/1918 (H1N1)); experiment: dynamic light scattering; in solution; data not shown
[2] = target: neuraminidase from A/BrevigMission/1/1918 (H1N1), residues 83 to 468 of the ectodomain, construct pTT5-NA (+SS −TET) (influenza A virus A/BrevigMission/1/1918 (H1N1)); experiment: crystal structure

In the case of “neuraminidase from A/BrevigMission/1/1918 (H1N1), residues 83 to 468 of the ectodomain, construct pTT5-NA (+SS −TET) (domain or fragment)”, the stoichiometry N [1] is reported as 4 and the stoichiometry N [2] is reported as 4.
